The EC50 is the concentration that produces a half-maximal response.

Where two headings read alike, the source gives them in different places. Residues, ends and D or L forms follow the SMILES beside them. *: point of attachment. Doxorubicin(3'-N) = COc1cccc2c1C(=O)c1c(O)c3c(c(O)c1C2=O)C[C@@](O)(C(=O)CO)C[C@@H]3O[C@H]1C[C@H](N*)[C@H](O)[C@H](C)O1

Here are results for 13 compounds from patent publication US6844318B2, “Peptidase-cleavable, targeted antineoplastic drugs and their therapeutic use” (priority 2000, dated 2005).

Data set [1] can be described thus: Stability of conjugates in Hepes buffer (control of blood stability test). Conditions: Hepes buffer pH 7.5, 10 μmolar, 37° C. It is filed as physicochemical. As for the experimental part: (§1) The stability of doxorubicin conjugated peptides in human or nude mouse blood was evaluated by reverse phase HPLC with fluorescence detection after an 80% acetonitrile extraction. Individual peptides are prepared as 60 μmolar solutions in Hepes buffer pH 7.5 (50 mM), with CaCl2 (10 mM), Brij-35 (0.1%), followed by dilution to 10 μmolar in fresh heparinized whole blood or buffer. Solutions are incubated (37° C.) with slow continuous rocking. 50 μl reactions are terminated at designated times ranging from 1 minute to 24 hours by vortexing into 200 μl acetonitrile. After a brief centrifugation (1 min, 14,000×g) to pellet the precipitate, the acetonitrile is collected and evaporated to dry under a flow of nitrogen. Extracted samples are resuspended in 50 μl acetonitrile, followed by 100 μl distilled H2O, and transferred to HPLC autoinjector vials. Samples are chromatographed using a Nova-Pak C18 column (3.9×150 mm; WAT086344, Waters Corp. Milford, Ma), with a 12 minute linear gradient from 33.3 to 77.7% acetonitrile, 0.1% TFA, using a flow rate of 1 ml/min. A scanning fluorescence detector (# 474, Waters Corp) monitoring 480 nm excitation, 580 nm emission quantitates AUC of peaks of interest; mass is extrapolated from a standard curve generated under matching conditions.

Data set [2] is described as follows: Stability of conjugates in human blood. Particulars: fresh heparinized whole human blood, 37° C., read-out: Conjugate Stability in Blood After 5.5 Hours (Percent of Control (In Buffer, T = 0)), Human Blood. It counts as in vitro ADME. Here is the method: as §1
The nature of data set [3]: Stability of conjugates in nude mouse blood. It is filed as in vitro ADME. Particulars: fresh heparinized whole nude mouse blood, 37° C., read-out: Conjugate Stability in Blood After 5.5 Hours (Percent of Control (In Buffer, T = 0)), Nude Mouse Blood. Here is the method: as §1
Data set [4] concerns HT1080 cells. Briefly: cells. It is filed as cell-based. As for the experimental part:
The conjugates were tested for cytotoxic effect against the HT1080 cell line, which expresses multiple MMPs. […] HT 1080 cells in culture have significant levels of MMPs 2, 9, and 14 and are consequently especially suitable for the evaluation of conjugates that are substrates for that enzyme.
The cell line was grown in tissue MEM with Earl's salts containing 10% fetal bovine serum (FBS). On day one, 500 cells were seeded into 96 well plates in 200 ul of cell culture medium that containing 10% FBS which had been stripped of bovine gelatinases by prior passage over a gelatin-sepharose column. On day two, peptidyl-Doxorubicin conjugates and Doxorubicin as a control were added to the plates. The cells were incubated for three days at 37° C., 5% CO2 in a tissue culture cell incubator. MTS reagent was added to each microplate well using the manufacturer's instructions […]. The plates were incubated for 2 hours at 37° C., 5% CO2. The plates were read on a Molecular Devices Spectropmax 250 plate reader at […]. The viability of the cells in each well was then calculated for each concentration of compound tested and compared to the control wells where no compound was added.

For data set [5] the following is noted: cited from earlier work.
For data set [6], the system named is prostate tumor cells. Conditions: cited from earlier work.
In data set [7] the target is PSA protease (Homo sapiens, UniProt P07288). Conditions: cited from earlier work.
Chain of PSA protease (P07288 25-261): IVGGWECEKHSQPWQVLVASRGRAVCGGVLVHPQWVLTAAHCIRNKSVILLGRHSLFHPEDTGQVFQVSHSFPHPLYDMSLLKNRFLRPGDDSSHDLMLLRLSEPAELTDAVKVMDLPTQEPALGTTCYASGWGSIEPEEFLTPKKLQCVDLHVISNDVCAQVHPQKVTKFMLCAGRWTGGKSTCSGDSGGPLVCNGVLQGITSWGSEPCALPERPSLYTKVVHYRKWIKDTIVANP
Data set [8] has as its system human ovarian tumor xenograft. Conditions: equitoxic doses; cited from earlier work.
For data set [9] the following is noted: Phase I trial, in the tumor tissue; cited from earlier work.
For data set [10] the following is noted: mice; cited from earlier work.
Data set [11] relates to HT1080 cells. The data set can be described thus: Analysis of processing by HT1080 cultures (HPLC). It is filed as cell-based. As for the experimental part: Actively growing HT1080 cells are seeded in a 12 well plate at 2×10^5 cells per well in DMEM with 10% serum. On the next day, media is removed and cells are washed twice with PBS. 1.5 of DMEM containing 0.1% BSA, […] Ac-PLG-HofK(Me2)L-Dox (SEQ ID NO: 127) and 40 nM PMA is then added to each well. A broad spectrum MMP inhibitor is added to some samples so that the amount of processing that is due to MMPs can be determined. At the indicated times, 0.1 ml aliquots are removed, added to 0.4 ml acetonitrile, vortexed, and centrifuged for 2 minutes. 0.4 of cleared supernatant is removed and dried using a nitrogen stream. The dried pellet is suspended in 0.12 ml of HPLC Buffer A and analyzed as in Example 1000.
At the times used in this experiment, the only detectable metabolite is L-Dox. HofK(Me2)L-Dox and K(Me2)L-Dox are not detected since they are rapidly converted to L-Dox. At later times, Dox is formed from L-Dox.

Setting [12] is: HT1080 cells, three days, MTS, read-out: EC50.

Turning to `COc1cccc2c1C(=O)c1c(O)c3c(c(O)c1C2=O)C[C@@](O)(C(=O)CO)C[C@@H]3O[C@H]1C[C@H](NC(=O)[C@H](CC(C)C)NC(=O)CNC(=O)[C@H](CC(C)C)NC(=O)[C@@H]2CCCN2C(=O)CNC(C)=O)[C@H](O)[C@H](C)O1` [Ac-GPLG-L-Dox] (Ac-GPLGL-{Doxorubicin(3'-N)}), the “Conjugate Stability After 5.5 Hours (Percent of Control (In Buffer, T = 0)), Buffer” value in data set [1] came to 106%. Also, the remaining at 5.5 h, 10 μmolar was 10.2% in [2] and 5.9% in data set [3].
For `COc1cccc2c1C(=O)c1c(O)c3c(c(O)c1C2=O)C[C@@](O)(C(=O)CO)C[C@@H]3O[C@H]1C[C@H](NC(=O)[C@H](CC(C)C)NC(=O)[C@H](C)NC(=O)[C@H](CC(C)C)NC(=O)CNC(=O)[C@H](CC(C)C)NC(=O)[C@@H]2CCCN2C(=O)CNC(C)=O)[C@H](O)[C@H](C)O1` [Ac-GPLG-LAL-Dox, acetyl-G-P-L-G-L-A-L-Dox] (Ac-GPLGLAL-{Doxorubicin(3'-N)}), in that order: 92.2%, 15.4% and 5.8%.
As to `COc1cccc2c1C(=O)c1c(O)c3c(c(O)c1C2=O)C[C@@](O)(C(=O)CO)C[C@@H]3O[C@H]1C[C@H](NC(=O)[C@H](CC(C)C)NC(=O)[C@H](CC(C)C)NC(=O)CNC(=O)[C@H](CC(C)C)NC(=O)[C@@H]2CCCN2C(=O)CNC(C)=O)[C@H](O)[C@H](C)O1` [Ac-GPLG-LL-Dox, acetyl-G-P-L-G-L-L-Dox] (Ac-GPLGLL-{Doxorubicin(3'-N)}), the “Conjugate Stability After 5.5 Hours (Percent of Control (In Buffer, T = 0)), Buffer” value in data set [1] came out at 105%. Besides, the values for the remaining at 5.5 h, 10 μmolar in data set [2] and in data set [3] were 42.6% and 25.8%, respectively.
As to `COc1cccc2c1C(=O)c1c(O)c3c(c(O)c1C2=O)C[C@@](O)(C(=O)CO)C[C@@H]3O[C@H]1C[C@H](NC(=O)[C@H](CC(C)C)NC(=O)CNC(=O)[C@H](CC(C)C)NC(=O)[C@@H]2CCCN2C(C)=O)[C@H](O)[C@H](C)O1` [Ac-PLG-L-Dox, Ac-PLGL-Dox] (Ac-PLGL-{Doxorubicin(3'-N)}), the “Conjugate Stability After 5.5 Hours (Percent of Control (In Buffer, T = 0)), Buffer” value in [1] came to 99.2%. For the same compound, the remaining at 5.5 h, 10 μmolar is 74.7% in data set [2] and 68.2% in [3].
As for `COc1cccc2c1C(=O)c1c(O)c3c(c(O)c1C2=O)C[C@@](O)(C(=O)CO)C[C@@H]3O[C@H]1C[C@H](NC(=O)[C@H](CC(C)C)NC(=O)[C@H](C)NC(=O)[C@H](CC(C)C)NC(=O)CNC(=O)[C@H](CC(C)C)NC(=O)[C@@H]2CCCN2C(C)=O)[C@H](O)[C@H](C)O1` [Ac-PLG-LAL-Dox, acetyl-P-L-G-L-A-L-Dox] (Ac-PLGLAL-{Doxorubicin(3'-N)}), the “Conjugate Stability After 5.5 Hours (Percent of Control (In Buffer, T = 0)), Buffer” value in data set [1] was determined as 96.8%. The remaining at 5.5 h, 10 μmolar in data set [2] was 49.1%; in data set [3], 9%. Besides, in data set [4] (setting [12]), the EC50 was < 10 µM.
For `COc1cccc2c1C(=O)c1c(O)c3c(c(O)c1C2=O)C[C@@](O)(C(=O)CO)C[C@@H]3O[C@H]1C[C@H](NC(=O)[C@H](CC(C)C)NC(=O)[C@H](CC(C)C)NC(=O)CNC(=O)[C@H](CC(C)C)NC(=O)[C@@H]2CCCN2C(C)=O)[C@H](O)[C@H](C)O1` [Ac-PLG-LL-Dox, Acetyl-P-L-G-L-L-Dox] (Ac-PLGLL-{Doxorubicin(3'-N)}), in that order: 106%, 87.2%, 63.8% and < 10 µM.
As to `COc1cccc2c1C(=O)c1c(O)c3c(c(O)c1C2=O)C[C@@](O)(C(=O)CO)C[C@@H]3O[C@H]1C[C@H](NC(=O)[C@H](CC(C)C)NC(=O)[C@H](C)NC(=O)[C@H](CC(C)C)NC(=O)[C@H](CC(C)C)NC(=O)CNC(=O)[C@H](CC(C)C)NC(=O)[C@@H]2CCCN2C(C)=O)[C@H](O)[C@H](C)O1` [Ac-PLG-LLAL-Dox, acetyl -P-L-G-L-L-A-L-Dox] (Ac-PLGLLAL-{Doxorubicin(3'-N)}), the “Conjugate Stability After 5.5 Hours (Percent of Control (In Buffer, T = 0)), Buffer” value in data set [1] is 102.0%. The remaining at 5.5 h, 10 μmolar in data set [2] amounted to 55.6%; in data set [3], 19.2%. Besides, in [4], the EC50 was < 10 µM.
As for `COc1cccc2c1C(=O)c1c(O)c3c(c(O)c1C2=O)C[C@@](O)(C(=O)CO)C[C@@H]3O[C@H]1C[C@H](NC(=O)[C@H](CC(C)C)NC(=O)[C@H](C)NC(=O)[C@H](Cc2ccc(O)cc2)NC(=O)[C@H](CC(C)C)NC(=O)CNC(=O)[C@H](CC(C)C)NC(=O)[C@@H]2CCCN2C(C)=O)[C@H](O)[C@H](C)O1` [Ac-PLG-LYAL-Dox, acetyl -P-L-G-L-Y-A-L-Dox] (Ac-PLGLYAL-{Doxorubicin(3'-N)}), the “Conjugate Stability After 5.5 Hours (Percent of Control (In Buffer, T = 0)), Buffer” value in data set [1] came to 91.3%. The remaining at 5.5 h, 10 μmolar in [2] worked out at 37.5%; in [3], 20%. Besides, the concentration for a half-maximal effect (EC50) in data set [4] (setting [12]) was < 10 µM.
With `COc1cccc2c1C(=O)c1c(O)c3c(c(O)c1C2=O)C[C@@](O)(C(=O)CO)C[C@@H]3O[C@H]1C[C@H](NC(=O)[C@H](CC(C)C)NC(=O)[C@H](Cc2ccc(O)cc2)NC(=O)[C@H](CC(C)C)NC(=O)CNC(=O)[C@H](CC(C)C)NC(=O)[C@@H]2CCCN2C(C)=O)[C@H](O)[C@H](C)O1` [Ac-PLG-LYL-Dox, acetyl-P-L-G-L-Y-L-Dox] (Ac-PLGLYL-{Doxorubicin(3'-N)}), the “Conjugate Stability After 5.5 Hours (Percent of Control (In Buffer, T = 0)), Buffer” value in [1] stood at 112%. Also, the remaining at 5.5 h, 10 μmolar in data set [2] was 90.1%.
`COc1cccc2c1C(=O)c1c(O)c3c(c(O)c1C2=O)C[C@@](O)(C(=O)CO)C[C@@H]3O[C@H]1C[C@H](N)[C@H](O)[C@H](C)O1` [Doxorubicin, doxorubicin, reference compound]: the “cumulative dose in excess of which there is a substantial risk of cardiotoxicity and myelosuppression” value in [5] is listed as 500 to 550 mg doxorubicin/m^2. Further, the EC50 in data set [4] (Homo sapiens, HT-1080, 72 h, HT1080 cells, three days, MTS, read-out: EC50) lay in the range of 0.008 to 0.009 µM.
Take “Ac-HSSKLQ-Leu-Dox: peptide-doxorubicin pro-drug targeted to the prostate-specific antigen (XSSKLQL; N-acetyl, Leu-doxorubicin conjugate)”: in data set [6], the “activity against prostate tumor cells which express the protease activity” value is on record as “is active against prostate tumor cells”. Further, the “substrate for the PSA protease” value in [7] is recorded as “is a substrate for the PSA protease”.
As to Leu-Dox, the “anti-tumor efficacy compared with free doxorubicin” value in data set [8] is listed as “more effective anti-tumor agent than free doxorubicin”. For the same compound, in data set [9], the “conversion of Leu-Dox to Dox” value is “approximately 25%”. In addition, in [10], the “overall conversion of Leu-Dox to Dox” value was “approximately 20%”.
In the case of “acetyl-P-L-G-Hof-(N,N-dimethyl-K)-L-Dox (XLGXXL; non-natural residues) [Ac-PLG-HofK(Me2)L-Dox]”, the “Fraction of L-Dox” value in [11] (0 hours, Minus MMP inhibitor) stood at 0; in [11] (0 hours, Plus MMP inhibitor), 0; in data set [11] (3 hours, Minus MMP inhibitor), 0.10; in data set [11] (3 hours, Plus MMP inhibitor), 0.004; in [11] (5.5 hours, Minus MMP inhibitor) it was 0.20; in data set [11] (5.5 hours, Plus MMP inhibitor), 0.01. Besides, the “Fraction of L-Dox” value in data set [11] (8 hours, Minus MMP inhibitor) came out at 0.46; in data set [11] (8 hours, Plus MMP inhibitor), 0.02.
